This passage reports Kd results from the Immune Epitope Database (IEDB).

Holding throughout (assay): IEDB peptide-MHC binding, purified MHC/competitive/fluorescence; filed as Kd, often an IC50 or EC50 that approximates it; ≥ and ≤ were set here for values at or beyond the usual limits of such assays
The target of one test is HLA-B*40:13. Particulars: source organism: Escherichia coli F11.
The next test deals with HLA-A*02:01. Particulars: source organism: Escherichia coli F11.
A further test addresses HLA-B*83:01. The settings on record: source organism: Escherichia coli F11.
A further test concerns the target HLA-B*15:42. The settings on record: source organism: Escherichia coli F11.
The target of a further test is HLA-B*45:06. Particulars: source organism: Escherichia coli F11.
The next test concerns the target HLA-A*26:02. The settings on record: source organism: Homo sapiens.
Another test addresses HLA-A*11:01. Particulars: source organism: Homo sapiens.
Another test concerns the target HLA-A*26:03. Particulars: source organism: Homo sapiens.
Another test concerns the target HLA-B*08:01. Particulars: source organism: Homo sapiens.
The next test has as its target HLA-B*15:09. Particulars: source organism: Homo sapiens.
The target in the next test is HLA-B*15:17. The settings on record: source organism: Homo sapiens.
The target of the next test is HLA-A*68:02. Particulars: source organism: Homo sapiens.
The target of another test is HLA-B*08:03. The settings on record: source organism: Homo sapiens.

Regarding GLIPQWVTL, the equilibrium dissociation constant (Kd) (commonly the free concentration of one partner at which half of the binding sites on the other are occupied at equilibrium, for simple one-to-one binding) was 0.458 µM with HLA-B*40:13; at most 0.0001 µM with HLA-A*02:01; at least 5 µM with HLA-B*83:01; at least 5 µM in the test with HLA-B*15:42; at least 5 µM with HLA-B*45:06.

Consider TYSPALNKM, for which the Kd in the test with HLA-A*26:02 is 0.531 µM; with HLA-A*11:01, at least 20 µM; with HLA-A*26:03, at least 20 µM; with HLA-B*08:01 it was at least 20 µM; in the test with HLA-B*15:09, at least 20 µM; with HLA-B*15:17 it was at least 20 µM. Further, the Kd with HLA-A*68:02 was 3.22 µM; in the test with HLA-B*08:03 it was at least 20 µM.
